Results taken from the supplement of paper PMC10567573.
± gives the standard deviation.

Assay: protein stability index of a GFP-peptide fusion (GPS, HEK-293T) (PSI 1-6); higher = more stable
[1] = treatment: DMSO, c terminus: a fixed tail appended
[2] = treatment: MLN4924 1 uM, 8 h, c terminus: a fixed tail appended
[3] = treatment: DMSO, c terminus: native
[4] = treatment: MLN4924 1 uM, 8 h, c terminus: native
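Also: 24-mer peptide tiles fused after GFP, lentivirally expressed, FACS-sorted into six equal bins by GFP/DsRed ratio, decoded by Illumina sequencing, PSI is the read-weighted mean bin number.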

Sequence	protein stability index [1]	protein stability index [2]	protein stability index [3]	protein stability index [4]
GQTVTIWAANAGVTASPPTDLIWK [LMNB1]	2.37 ± 0.35	2.34 ± 0.32	–	–
AGSFSRRLIKRFSFKSKPKANGNP [C2CD2L]	3.19 ± 0.21	3.55 ± 0.15	–	–
QTTTAYKKTHETLSHAGQKATAAF [TPD52L1]	4.08 ± 0.34	3.98 ± 0.27	–	–
KEDQFGRTPLMYCVLADRLDCADA [INVS]	3.12 ± 0.41	3.26 ± 0.3	–	–
SVPIDLQKVDQFDPFTVPTISFIC [PRIM1]	2.55 ± 0.44	2.48 ± 0.74	–	–
PPPASQPVVKALFGASAAGGLSPV [CDC25A]	4.08 ± 0.14	4.17 ± 0.21	–	–
SFPATLETQEQDVDLVQKYLEKYY [MMP1]	3.82 ± 0.12	4.09 ± 0.2	–	–
IGPIHLNEIQCTGNEKSIIDCKFN [LOXL2]	3.63 ± 0.15	3.67 ± 0.23	–	–
TMDGEGTLFQTESPQSGSILTEET [PBXIP1]	5.44 ± 0.066	5.43 ± 0.17	–	–
CAKMEKDGYGMTPLLSASVTGHTN [FEM1C]	3.58 ± 0.26	3.55 ± 0.11	–	–
PSNRSFFSEIISSISDVKFSHSGR [PPP2R2B]	2.73 ± 0.44	2.78 ± 0.39	–	–
WEPRRDMWVRFRAFEAARDLDACA [ZSWIM9]	2.79 ± 0.34	2.72 ± 0.2	–	–
EEPQWVPDKECRRCMQCDAKFDFL [ZFYVE21]	2.85 ± 0.45	2.95 ± 0.39	–	–
YEAQDGRGPDNALLEATGGAAGRS [KCTD10]	5.37 ± 0.34	5.41 ± 0.25	–	–
NVPNVCRMYCSDLLNPNLKDTVIC [SPACA3]	2.15 ± 0.3	2.31 ± 0.28	–	–
AVARSPKRPAWGSRRFEAVGWWAL [POMT2]	2.88 ± 0.97	2.49 ± 0.51	–	–
MSNQQEKYEAQNIVNSTEESDDAF [IQUB]	5.65 ± 0.18	5.47 ± 0.29	–	–
DSVLKGMQAASSKMVSAEISENRK [SDE2]	4.31 ± 0.23	4.68 ± 0.33	–	–
VIDLAESLVADNCVTLVWRMPDED [FSD1]	2.35 ± 0.33	2.79 ± 0.27	–	–
STNGEKTKSPCESNNKKNDEMQEV [SPANXN3]	5.53 ± 0.16	5.41 ± 0.19	–	–
QRFHEICSNLVKTRRRAVGWWKRL [ARL6IP1]	2.22 ± 0.41	2.55 ± 0.62	–	–
DEASAATPPSSRRVWSPPRVHKVE [ZBTB22]	5 ± 0.073	4.99 ± 0.15	–	–

Sequence	protein stability index [1]	protein stability index [2]	protein stability index [3]	protein stability index [4]
TLPEYRVSVPENLPVGTQLLTVTA [PCDHGA10]	3.36 ± 0.29	3.24 ± 0.3	–	–
LTNNVDLDNTKKKMEIYQKENKDV [MNAT1]	5.34 ± 0.3	5.31 ± 0.19	–	–
TEPPVALAPGPAPTRCLPGHKEEE [ESRRA]	5.28 ± 0.12	5.36 ± 0.34	–	–
IENNKYGWFWVCPGGGDICMYRHA [ZC3H15]	2.52 ± 0.32	2.15 ± 0.53	–	–
TALTSFCAKYTYPVCSALLDPVLQ [FANCE]	2.31 ± 0.37	2.23 ± 0.35	–	–
RSSPDDLKALTRNVNRLNESFRDL [SCARA5]	3.95 ± 0.34	3.88 ± 0.32	–	–
HLSSQQASGQSYSSREVFTSSSSS [KRT16]	4.63 ± 0.21	4.58 ± 0.17	–	–
KDPSAIGKKQVPCFASMLTKKLHF [CASP6]	2.23 ± 0.14	2.36 ± 0.16	–	–
PGKDYDADRQCQLTFGPDSRHCPQ [ADAMTS4]	4.68 ± 0.26	4.67 ± 0.24	–	–
CDLADRELVVIIGWAKHIPGFSTL [ESRRG]	2.92 ± 0.76	3.05 ± 0.56	–	–
LSTKKSPCAGSTSLSHSPGCSSTQ [LCOR]	4.35 ± 0.22	4.27 ± 0.12	–	–
AVQRFCLIGSLSKHESEYNTTRV [NETO1]	–	–	2.85 ± 1.1	2.48 ± 0.6
SKLSLLLNDISRKSEGLSGRVLRK [TRIP13]	2.82 ± 0.28	2.82 ± 0.31	–	–
FIWFVCSLVYYGLTLSAGDLGGSI [SLC22A15]	3.46 ± 0.52	3 ± 0.78	–	–
LLDKLAKENQDIRLLQAQLQAQKE [PBXIP1]	4.37 ± 0.33	4.21 ± 0.27	–	–
LTAKQLIKSIVEASKGCQLGKTEQ [TRIM63]	2.57 ± 0.18	2.38 ± 0.6	–	–
TGGLGGERERQPCGDGNTETHRAP [SOAT2]	5.37 ± 0.15	5.31 ± 0.19	–	–
KQLVSPAAALLSNTTCQTENRLSV [PTGFR]	3.74 ± 0.25	3.99 ± 0.2	–	–
CVARPGTPSLLRFALASLLQSAPD [ZSWIM9]	2.19 ± 0.18	2.24 ± 0.31	–	–
LVTTGANVNETDDWGRTALHYAAA [ANKRD44]	3.34 ± 0.26	3.52 ± 0.15	–	–
SSTQLCVLNDRFQRQKYLSLQQMQ [NANOGP8]	2.65 ± 0.14	2.83 ± 0.1	–	–
LPHLVALTEQYTVTGLMEATQMMV [RHOBTB2]	2.89 ± 0.67	2.86 ± 0.52	–	–

Sequence	protein stability index [1]	protein stability index [2]	protein stability index [3]	protein stability index [4]
RAAAAAAVAAATAAVEGSGGSGGG [KCNA4]	4.88 ± 0.26	4.9 ± 0.28	–	–
PRDLPKHTPLISKSQSLRSVRRSE [RASAL3]	5.19 ± 0.27	5.43 ± 0.2	–	–
WYRPMYKAFRSDSSFNFFVFFFIF [SCAMP3]	2.94 ± 0.34	2.86 ± 0.54	–	–
VYMFKNGSGDSGDSSEEESHRVVL [LYSMD4]	3.49 ± 0.32	3.33 ± 0.38	–	–
VHNIVIFMRTSVKISYIGLMTQSS [TMEM106C]	2.83 ± 0.38	3.03 ± 0.32	–	–
VTSIHKYMVRRYFNKPSRVPAPEA [MYORG]	2.42 ± 0.14	2.38 ± 0.3	–	–
IQWKNHDQNNHNTDRSSHKDSMN [EDNRA]	–	–	5.36 ± 0.29	5.49 ± 0.23
SRSTLECAYRTHLVAGIGFYQHLL [SMG5]	2.9 ± 0.35	2.83 ± 0.57	–	–
LPSHPLELSEKNFQLNQDKMNFST [POMP]	3.84 ± 0.29	3.78 ± 0.21	–	–
TAGQERFRALAPMYYRGSAAAIIV [RAB22A]	2.26 ± 0.091	2.25 ± 0.26	–	–
NAAHSLLSTNDKTIKLWKITERDK [PPP2R2C]	3.68 ± 0.085	3.82 ± 0.27	–	–
GDASECPQATNAKDSGCSSPGAH [PPEF2]	–	–	5.78 ± 0.1	5.57 ± 0.12
EENRLREELRQEWEAKQEKIKSEE [FAM50A]	5.59 ± 0.14	5.52 ± 0.21	–	–
SQSETSSAVSTPSPVTRTRSLSAC [DLC1]	4.89 ± 0.23	4.87 ± 0.14	–	–
CHEEVYAGSHQYPGRGVYLLKFDN [ACBD3]	2 ± 0.64	2.16 ± 0.8	–	–
LVVMAPSPSESSETVLALVNCISP [DENND6A]	2.4 ± 0.32	2.15 ± 0.19	–	–
PERLHAIKEQLIQEGLLDRCVSFQ [HDAC6]	2.88 ± 0.11	3.18 ± 0.12	–	–
MGQVLPVFAHCKEAPSTASSTPDS [RTN2]	4.67 ± 0.25	4.83 ± 0.23	–	–
LDPDSKENAQIIYSLAEDTIQGVP [PCDHGA10]	4.64 ± 0.15	4.56 ± 0.23	–	–
DAAEEEKYDMEVRVQKTSKELEDM [TNNI2]	5.45 ± 0.24	5.46 ± 0.17	–	–
CAVMNVVFITILIIALIALSVGQY [CD69]	3.04 ± 0.34	2.47 ± 0.48	–	–
DAAHPTNVQRLAEPSQMLKHAVVN [CTNNB1]	4.62 ± 0.19	4.62 ± 0.15	–	–

Sequence	protein stability index [1]	protein stability index [2]	protein stability index [3]	protein stability index [4]
PQVPQPPSPAAVPRPPSNPPARGT [TRAF3IP2]	5.2 ± 0.12	5.17 ± 0.2	–	–
DATLSLKQTILDKEEKQRRNVAKN [TTC32]	4.99 ± 0.28	4.91 ± 0.19	–	–
EFYHDEFKRWIYLNDQNLCIPASS [GAN]	2.75 ± 0.28	2.74 ± 0.13	–	–
TEIEEELKSLDKEISEAFTSTGFD [BCL2L13]	5.16 ± 0.27	5.26 ± 0.34	–	–
VLDLEARGYIKPHVDSIKFCGATI [ALKBH7]	2.14 ± 0.26	2.15 ± 0.42	–	–
GLRKRIATLFFHYIKTPLFNPEVA [IQUB]	2.12 ± 0.36	2.19 ± 0.74	–	–
RSPRAGAGALLRLPSERLDFSMAE [PRPH]	4.17 ± 0.17	4.21 ± 0.29	–	–
FIYSTWKGRTIYLEDIYVMPEYRG [SAT2]	3.21 ± 0.44	2.8 ± 0.52	–	–
HALATRASDYSKKSNVLKLKTADW [PSD2]	3.13 ± 0.18	3.17 ± 0.17	–	–
RAILKPRKVCVGGKRRKDEISVDS [PPP2R2B]	3.85 ± 0.19	4.1 ± 0.12	–	–
SASSPASVGDPCGGAICGGPDHRL [SLC25A25]	4.43 ± 0.23	4.58 ± 0.22	–	–
TEELIVQTKQVYDAVGMLGIEEVT [NLN]	4.23 ± 0.17	4.1 ± 0.45	–	–
FGGSFMAPSPSPVTPAQNNLLQPN [SNAP91]	2.64 ± 0.59	3.09 ± 0.4	–	–
RSERKKWIHCFEGVTAIIFCVALS [GNAI1]	3.21 ± 0.4	2.89 ± 0.8	–	–
FHKQQWFNCIRAAIAPFQSAGSPP [NET1]	2.69 ± 0.58	2.5 ± 0.3	–	–
PLMVASAQSGERECHIVVLTDDDV [BTBD10]	3.71 ± 0.32	3.92 ± 0.15	–	–
VTAEVDLFGDAFAASPGEAPAASE [SNAP91]	5.02 ± 0.26	5.02 ± 0.16	–	–
MNKGDTEVMKCIVEVISDTLSKPS [CHGA]	2.84 ± 0.3	2.86 ± 0.31	–	–
EDPEENPYGPPPDAVQTSLMDEGA [RBBP5]	5.56 ± 0.33	5.46 ± 0.29	–	–
VLDELTLARADLEMQIENLKEELA [KRT17]	3.04 ± 0.29	3.1 ± 0.37	–	–
PPSRGHGYRDYGHSRRHESYSRGY [RBMY1A1]	3.96 ± 0.07	4.01 ± 0.32	–	–
IYVIGDLDTGTNYDYVREFKRSTG [GAN]	2.18 ± 0.43	2.04 ± 0.43	–	–
